We go through three molecules from paper PMC4075942 (Nature structural & molecular biology, 2014).

The term stoichiometry N denotes the number of molecules, sites or subunits per partner or assembly. For orientation: Kd means the free concentration of one partner at which half of the binding sites on the other are occupied at equilibrium, for simple one-to-one binding. Low values mean higher affinity, high ones lower affinity.

Values joined by “and” are separate entries in the source; they are usually repeats but may differ in a detail not shown here. Equal values may be shown once.

First the molecules themselves.
B1: Cas1 from Escherichia coli K12 (MG1655), untagged, purified (enzyme, E. coli K12 (MG1655))
chain: MTWLPLNPIPLKDRVSMIFLQYGQIDVIDGAFVLIDKTGIRTHIPVGSVACIMLEPGTRVSHAAVRLAAQVGTLLVWVGEAGVRVYASGQPGGARSDKLLYQAKLALDEDLRLKVVRKMFELRFGEPAPARRSVEQLRGIEGSRVRATYALLAKQYGVTWNGRRYDPKDWEKGDTINQCISAATSCLYGVTEAAILAAGYAPAIGFVHTGKPLSFVYDIADIIKFDTVVPKAFEIARRNPGEPDREVRLACRDIFRSSKTLAKLIPLIEDVLAAGEIQPPAPPEDAQPVAIPLPVSLGDAGHRSS
B3: Cas2 from Escherichia coli K12 (MG1655), untagged, purified (enzyme, E. coli K12 (MG1655))
chain: MSMLVVVTENVPPRLRGRLAIWLLEVRAGVYVGDVSAKIREMIWEQIAGLAEEGNVVMAWATNTETGFEFQTFGLNRRTPVDLDGLRLVSFLPV

Series [1] addresses B3. As to the kind of experiment: AUC.
Series [2] has as its target B3. As to the kind of experiment: ITC. A general note: In ITC the heat of successive injections is recorded.
The series “crystal structure” concerns the molecule itself. As to the kind of experiment: crystal structure.
The series “SEC” concerns the molecule itself. Put plainly: SEC. For orientation: In gel filtration, larger molecules generally elute earlier.
In series [3] the target is B1. As to the kind of experiment: ITC.

Consider B1, for which the results for the “stoichiometry N” value (in series [1]; in series [2]; in “crystal structure”) were 1 Cas1 dimer per Cas2 dimer, ~1.5 Cas1 to Cas2 and 2, respectively. For the same molecule, the “KD of a single run” value in series [2] was 308 nM and 212 nM and 351 nM.

B2: Cas1 R252E, purified (enzyme, E. coli K12 (MG1655))
chain: MTWLPLNPIPLKDRVSMIFLQYGQIDVIDGAFVLIDKTGIRTHIPVGSVACIMLEPGTRVSHAAVRLAAQVGTLLVWVGEAGVRVYASGQPGGARSDKLLYQAKLALDEDLRLKVVRKMFELRFGEPAPARRSVEQLRGIEGSRVRATYALLAKQYGVTWNGRRYDPKDWEKGDTINQCISAATSCLYGVTEAAILAAGYAPAIGFVHTGKPLSFVYDIADIIKFDTVVPKAFEIARRNPGEPDREVRLACEDIFRSSKTLAKLIPLIEDVLAAGEIQPPAPPEDAQPVAIPLPVSLGDAGHRSS
With B2, the “stoichiometry N” value in “SEC” amounted to 2.
B3 showed a Kd in series [3] of approximately 290 nM. Also, the “stoichiometry N” value in “crystal structure” was determined as 2.
